Source: paper PMC10107573 (Nature Communications, 2023)

Molecular target: T1, SARS-CoV-2 Omicron BA.1 spike ectodomain (S trimer) (SARS-CoV-2 Omicron BA.1, S371L | S373P | S375F | S477N | E484A)
T1 construct: also called BA.1 S trimer
Experiment: cryo-EM structure
Conditions: both partners purified

B1: 10-5B Fab (Fab, V domains shown)
VH: EVQLVESGGGLIQPGGSLRLSCAVSGFTVSRMSWVRQAPGKGLECVSVIYTGGNTDYADSVKGRFTISRDNSKNTLYLQMNSLRAEDTALYYCVRGSGGIHDAFDIWGQGTMVTVSS
VL: DIQMTQSPSSVSASVGDRVTITCRASQGISTWLAWYQQKPGKAPKVLINAASGLQSGVPSRFSGSGSGTDFTLTISSLQPEDFATYYCQQAHSFPPTFGPGTKLEIK
notes: also called 10-5B Fab fragments
B1 was tested, and the “stoichiometry N” value was 3 Fabs per S trimer.
